Laboratory results taken from the nanobody polyreactivity screen of Harvey et al. (2022).

Assay: yeast display, Sf9 membrane polyspecificity reagent, FACS + sequencing; frameworks hold sequencing errors
Procedure, shortened: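 Synthetic nanobody libraries on Saccharomyces cerevisiae BJ5465 were galactose-induced for 36–48 hours, stained 1 hour at 4 °C with 10% biotinylated, detergent-solubilized Sf9 membrane reagent and enriched on streptavidin microbeads. FACS then separated cells into low and high (top ~1%) gates by anti-HA (expression) and streptavidin (reagent binding) fluorescence. Genes were colony-PCR amplified, MiSeq 2 × 250 sequenced and CDR-length filtered. A clone's polyreactivity label is that of its gate of origin.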

Sequence | polyreactivity (PSR sort gate)
QVQLVESGGGLVQAGGSLRLSCAASGFTFYYNAMGWYRQAPGKERELVAAITWDGGRTYYADSVKGRYTISRDNAKNTVYLQMNSLKTVDTAVYYCAAVEYSEHWDGYSWGEYYYWGQGTQVTVSS | high polyreactivity
QVQLVESGGGLVQAGGSLRLSCAASGFTFYYNAMGWYRQAPGKERELVAAMSGRGGSTHYADSVKGRFTISRDNAKNTVYLQMNSLKPEDTAVYYCNKVVRGSPEFDYWGQGTQVTVSS | high polyreactivity
QVQLVESGGGLVQAGGSLRLSCAASGFTFYYNARGWYRQAPGKERELVASITRSGGRTYYADSVKGRFTISRDNAKNTVYLQMNSLKPEDTAVYYCAAANHKGSRMDYWGQGTQVTVSS | high polyreactivity
QVQLVESGGGLVQAGGSLRLSCAASGFTFYYYAMGGYSQAPGKERELVAAISSTGGSTYYADSVKGRFTISRDNAKNTVYLQMNSLKPEDTAVYYCNAAGYRYPGDYDFWGQGTQVTVSS | high polyreactivity
QVQLVESGGGLVQAGGSLRLSCAASGFTFYYYAMGWYRQAPGKERELVAAIDTSDGSTYYADSVKGRFTISRDNAKNTVYLQMNSLKPEDTAVYYCAAEVDCVPFLLDYWGQGTQVTVSS | low polyreactivity
QVQLVESGGGLVQAGGSLRLSCAASGFTFYYYAMGWYRQAPGKERELVAAISRSGGSTYYADSVKGRFTISRDNAKNTVYLQMNSLKQEDTAVYYCAARRLVGAERPGYDDWGQGTQVTVSS | high polyreactivity
QVQLVESGGGLVQAGGSLRLSCAASGFTFYYYAMGWYRQAPGKERELVAAISSGGSTNYADSVKGRFTISRDNAKNTVYLPRNSLKPEDTAVYYCAAPQPYWWAYRYDYWGQGTQVTVSS | low polyreactivity
QVQLVESGGGLVQAGGSLRLSCAASGFTFYYYAMGWYRQAPGKERELVAGISKSGGITYYADSVKGRFTISLDNAKNTVYLQMNSLKPEDTAVYYCAAAEWYQFFIYRYTYEYWGQGTQVTVSS | low polyreactivity
QVQLVESGGGLVQAGGSLRLSCAASGFTFYYYAMGWYRQAPGKERELVASISWRGGSTYYADSVKGRFTISRDNAKNTVYLQMNSLKPEDTAVFYCAAQKRGSPGYRRDYWGQGTQVTVSS | high polyreactivity
QVQLVESGGGLVQAGGSLRLSCAASGFTFYYYAMGWYRQAPGKERELVATIRWSGGSTYYADSVKGRFTISRDNAKNTVYLQMNSLKPEDTAVYYCNATPPQYVKYPSYKYDYWGQGTQVTVSS | low polyreactivity
QVQLVESGGGLVQAGGSLRLSCAASGFTIFGYAMGWYRQAPGKERELVAAISTIDGDTYYADSVKGRFTISRDNAKNTVYLQMNSLKPEDTAVYYSAADDYIDGDDYWGQGTQVTVSS | low polyreactivity
QVQLVESGGGLVQAGGSLRLSCAASGFTIHGNAMGWYRPAPGKERELVAGISSSGASTYYADSVKGRFTISRDNAKNTVFLQMNSLKPEDTAVYYCAVRYYGRYLRYNYWGQGTQVTVSS | high polyreactivity
QVQLVESGGGLVQAGGSLRLSCAASGFTIIIYAMGWYRQAPGKERQLVAAINTSGTRTYYADSVKGRFTISRDNAKNTVYLQMNSLKPEDTAVYYCAARSGYKGEHGDRDDYWGQGTQVTVSS | high polyreactivity
QVQLVESGGGLVQAGGSLRLSCAASGFTIIRYAMGWYRQAPGKERDLVAAITTSGSGTYYAHSVKGRFTISRDNAKNTVYLQMNSLKPEDTAVDYCATDYRYRSYSRGAHDYWGQGTQVTVSS | low polyreactivity
QVQLVESGGGLVQAGGSLRLSCAASGFTIQFYTMGWYRQAPGKERELVAAISYNGDSTYYADSVKGRFTISRDNAKNTVYLQMNSLKPEDTAVYYCNTDLGTIYYYGYDYWGQGTQVTVSS | high polyreactivity
QVQLVESGGGLVQAGGSLRLSCAASGFTIQRYAMGWSRQAPGKERELVAAITSGGSTYYADSVKGRFTISRDNAKNTVYLQMNSLKPEDTAVYYCAAYYRGRAYISYGYWGQGTQVTVSS | high polyreactivity
QVQLVESGGGLVQAGGSLRLSCAASGFTIRQYAMGWYRQAPGKERELVAAISGRGGTTYYADSVKGRFTISRDNAKNTVYLQMNSLKPEDTAVYYCAARTFDRGKIPPPYDYWGQGTQVTVSS | high polyreactivity
QVQLVESGGGLVQAGGSLRLSCAASGFTIRRYAMGWYRQAPGKERALVAAITTGGSTYYADSVKGRFTISRDNAKNTVYLQMYSLKPEDTAVYYCATDTYPYPLYYSPGAYGYWGQGTQVTVSS | high polyreactivity
QVQLVESGGGLVQAGGSLRLSCAASGFTIRRYAMGWYRQAPGKESELVAAITTGGSTYYADSVKGRFTISRDNAKNTVYLQMNSLKPEDTAVYYCATDTYPYPLYYSPGAYGYWGQGTQVTVSS | high polyreactivity
QVQLVESGGGLVQAGGSLRLSCAASGFTIRSYVMGWYRQAPGKEREFVAAISYRGGGTNYADSVKGRFTISRDNAKNTVYLQMNSLKPEDSAVYYCNAYIVSNEGDYWGQGTQVTVSS | high polyreactivity
QVQLVESGGGLVQAGGSLRLSCAASGFTIRSYVMGWYRQAPGKERELVAAIRRSGGSTYYADSVKGRFTNSRDNAKNTVYLQMNSLKPEDTAVYYCNAPHHRYDWGQGTQVTVSS | high polyreactivity
QVQLVESGGGLVQAGGSLRLSCAASGFTISPYAMGWYRQAPGKERELVAVISKSSTRTYYADSVKGRFTISRDTAKNTVYLQMNSLKPEDTAVYYCNAGWNFVSGYYYWGQGTQVTVSS | high polyreactivity

Sequence | polyreactivity (PSR sort gate)
QVQLVESGGGLVQAGGSLRLSCAASGFTISSYVMGWYRQAAGKEREVVAAISSSGARTYYADSVKGRFTISRDNAKNTVYLQMNSLKPEDTAVYYCAADNSPRPYDYWGQGTQVTVSS | high polyreactivity
QVQLVESGGGLVQAGGSLRLSCAASGFTITKYAMGWYRQAPGKERELVAAISSSGYSTYYADSVKGRFTISRDNAKNTVYFQMNSLKPEDTAVYYCAARGYYSSGVDYCGQGTQVTVSS | high polyreactivity
QVQLVESGGGLVQAGGSLRLSCAASGFTIVPYAMGWYRQAPGKERELVAAISRRGSRTYYADSVKGRFTISRDNAKNTVYLQMNSLKPEDTAVYYCAAKLSAVKAAYDYWGQGTQVTVSS | high polyreactivity
QVQLVESGGGLVQAGGSLRLSCAASGFTIVYYSMGWYRQAPGKERELVATISSGGGTNYADSVKGRFTISRDNAKNTVYLQMNSLTPEDTAVYYCAAEYYTGYFKYDYWGQGTQVTVSS | high polyreactivity
QVQLVESGGGLVQAGGSLRLSCAASGFTIWQNAMGWYRQAPGKERELVAGIRLSGGSTYADSVKGRFTISRDNAKNTVYLQMNSLKPEDTAVYYCAARIAGYYRYRYSYGYWGQGTQVTVSS | high polyreactivity
QVQLVESGGGLVQAGGSLRLSCAASGFTIWRNDMGWYRQAPGKERELVAVISTAGRTYYADSVKGRFTISRDNAKITVYLQMNSLKPEDTAVYYCAKRSYSKDQPRYGYWGQGTQVTVSS | low polyreactivity
QVQLVESGGGLVQAGGSLRLSCAASGFTIYFKAMGWYRQAPGKERELVAAISFSGGGTYYADSVKGRFTISRDNAKNTFYLQMNSLKPEDTAVYYCAADWYDWVSTYDYWGQGTQVTVSS | low polyreactivity
QVQLVESGGGLVQAGGSLRLSCAASGFTKAYAMGWSRQAPGKERELVAVISDRAGSTYYADSVKGRFTISRDNPKNTVYLQMNSLKPEDTAVYYCAADGIGYSYHGRPYIYEYWGQGTQVTVSS | low polyreactivity
QVQLVESGGGLVQAGGSLRLSCAASGFTLDDYAMGWYRQAPGKEREWVAAITSGGTYADSVKGRFTISRDNAKNTVYLQMNSLKPEDTAVYYCNAGNNVVVDYDYWGQGTQVTVSS | low polyreactivity
QVQLVESGGGLVQAGGSLRLSCAASGFTLDWYVMGWYRQAPGKEREFVASIRYSGGSTYYADSVKGRFTISRDNAKNTVYLQMNRLKTEDTAVYYCAARTVTLSYLYYYWGQGTQVTVSS | high polyreactivity
QVQLVESGGGLVQAGGSLRLSCAASGFTLEYYAMGWYRQAPGKERELVASISSGGRTNYADSVKGRFTISRDNAKNTVYLQMNSLKPEDTAVYYCAAEYRSWGRYRYRFNYWGEGTQVTVSS | high polyreactivity
QVQLVESGGGLVQAGGSLRLSCAASGFTLFGYAMGWYRPAPGKERELVAAITSGDGRTYYADSVKGRFTISRDNAKNTVYLQMNSLKPEDTAVYYCAATRYSSYYYVRHDHWGQGTQVTVSS | low polyreactivity
QVQLVESGGGLVQAGGSLRLSCAASGFTLGGNALGWYRQAPGKERELVAAITFSGGSTYYADSVKGRFTISRDNAKNIVYLQMNSLKPVDTAVYYCAKTHGYYYYYTYDYWGQGTQVTVSS | low polyreactivity
QVQLVESGGGLVQAGGSLRLSCAASGFTLGRYAMGWYRQAPGKEREFVAAISRGGGSTNYADSVKGRFTISRDNAKNTVYLQMNSLKPEDTAVYYCAADDHTSGYGYWGQGTQVTVSS | high polyreactivity
QVQLVESGGGLVQAGGSLRLSCAASGFTLGSNVMGWYRQAPGKERELVAGISQSGGRTFYADSVKGRFTISRDNSKNTVYLQMNSLKPEDTAVYYCAARRYAVEGSKNYYWGQGTQVTVTS | low polyreactivity
QVQLVESGGGLVQAGGSLRLSCAASGFTLGSYAMGWYRQAPGKDRELVARISSDGSTNYADSVKGRFTISRDNAKNTVYLQMNSLKPEDTAVYYCAADFTYYDSPYRDYNYESWGQGAQVTVSS | low polyreactivity
QVQLVESGGGLVQAGGSLRLSCAASGFTLGVNAMGWYRQAPGKERELVAAISRGGSTDYADSVKGRFTISRDNAKNTVDLQMYSLKPEDTAVYYCAAETYAWYRGWEGYWGPGTQVTVSS | high polyreactivity
QVQLVESGGGLVQAGGSLRLSCAASGFTLGYNAMGWYRQAPGKERELVAGITWSGGSTSYADSVKGRFTISRDNAKNTVYLQMYSLKPADTAVYYCAKLRRYSGWLPWPYAYDYWGQGTQVTVSS | high polyreactivity
QVQLVESGGGLVQAGGSLRLSCAASGFTLHVYAMGWYRQAPGKERELVAAISTGGNTNFADSVKGRFTISRDNAKNTVYLQMNSLKPEDTAVYYCNTLGRYSSYYWGLGTQVTVSS | high polyreactivity
QVQLVESGGGLVQAGGSLRLSCAASGFTLIADDMGGYRQAPGKERELVAGISSGDSTDYADSVKGRFTISRDNAKNTVYVQMNSLTPEDTAVYYCAATWYGDYSRYDFYYWGQGTQVTVSS | low polyreactivity
QVQLVESGGGLVQAGGSLRLSCAASGFTLKSYAMGWYRQAPGKERELVASISRRGGSTYYADSVKGRFTISRDNAKNTVYLQMNSLKPEDTAVYYCAADRSGSSDGVYWGQGTQVTLSS | high polyreactivity
